Results: US20120100074A1 (Teva, published 2012)

Experiments:
[1] = target: T1, LIGHT (TNFSF14), recombinant soluble protein (human, UniProt O43557 83-240, limits assumed); assay: direct binding ELISA on LIGHT
T1 construct: The immunogen was the extracellular domain fragment (Leu Ile Glu to Phe Met Val of AF036581); also called TL5; LIGHT/TL5

[2] = target: T2, LIGHT expressed on the cell surface (LIGHT transfected cells; activated T-cells) (UniProt O43557 1-240, limits assumed); assay: flow cytometry on LIGHT transfected cells against vector control cells
T2 construct: whole, on cells

[3] = target: T1, LIGHT (TNFSF14), recombinant soluble …; assay: competition ELISA: inhibition of LIGHT-biotin binding to DcR3-Fc captured by Protein A
[4] = target: T1, LIGHT (TNFSF14), recombinant soluble …; assay: competition ELISA: inhibition of LIGHT-biotin binding to HVEM-Fc captured by Protein A
[5] = target: T1, LIGHT (TNFSF14), recombinant soluble …; assay: BiaCore (SPR)
[6] = target: T1, LIGHT (TNFSF14), recombinant soluble …; assay: competition ELISA: inhibition of LIGHT-biotin binding to LTbR-Fc captured by Protein A
[7] = target: T2, LIGHT expressed on the cell surface …; assay: flow cytometry on PMA/ionomycin activated Th1, Th17 and Th2 cells, biotin labeled antibody, streptavidin-PE
Experimental: FIG. 10B illustrates binding of humanized 5E10 antibody to Th1, Th17 and Th2 activated T-cells compared to controls. Polarized T-cells were activated with PMA/Ionomycin for 24 hr. Biotin labeled LIGHT antibody or control antibody was incubated with cells for 40 minutes at room temperature. After washing twice with PBS, the antibody binding to LIGHT expressed on activated T-cells was determined by flow cytometry using strepavidin conjugated to PE. Dotted lines on figure indicates humanized LIGHT antibody binding. Solid fill indicates control antibody binding.
This example describes an assay protocol to determine LIGHT antibody binding to LIGHT expressed on surface of activated T-cells by Flow cytometry. Polarized Th1, Th2 and Th17 cells were activated with 50 ng/mL PMA and 0.5 μg/mL lonomycin overnight at 37° C. One million activated T-cells were transferred to 5 mL FACS tubes and centrifuged at 1200 rpm for 5 minutes. The cellet pellet was resuspended in FACS staining buffer and incubated with anti-LIGHT or control antibodies at room temperature for 40 minutes. After washing twice with 2 mL PBS, the cells were incubated with PE-conjugated secondary reagents for 1 hour. The cells were washed 3 times with 2 mL PBS and resuspended in 0.5 mL PBS and analyzed by flow cytometry.

T1 sequence (O43557 83-240 limits assumed): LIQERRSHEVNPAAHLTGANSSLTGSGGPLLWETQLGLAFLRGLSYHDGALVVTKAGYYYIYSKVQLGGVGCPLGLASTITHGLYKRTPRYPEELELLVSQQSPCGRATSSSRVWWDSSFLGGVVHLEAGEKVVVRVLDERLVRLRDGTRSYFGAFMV
T2 sequence (O43557 whole entry): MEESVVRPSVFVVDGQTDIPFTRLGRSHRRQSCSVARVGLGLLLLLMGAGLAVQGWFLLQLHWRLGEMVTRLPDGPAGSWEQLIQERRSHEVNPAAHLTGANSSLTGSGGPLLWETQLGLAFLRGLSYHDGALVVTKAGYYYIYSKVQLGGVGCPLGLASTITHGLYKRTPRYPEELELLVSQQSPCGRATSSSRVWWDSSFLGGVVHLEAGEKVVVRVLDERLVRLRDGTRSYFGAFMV

Row | Binder | EC50 [1] [nM] | MFC ratio (mean fluorescence on LIGHT transfected cells to vector control cells) [2] [ratio] | IC50 [3] [nM] | IC50 [4] [nM] | Kd [5] [nM] | IC50 [6] [nM] | binding result [7]
1 | murine anti-LIGHT monoclonal antibody 10D11 (antibody, V domains shown, Mouse hybridoma monoclonal antibody; also called m10D11; mD10D11) VH: EIQLQQSGPDLVKPGASVKVSCKASGYSFTDYYIYWVRQSHGKSLEWIGYIDPYNGGTKYNQKFKDTASLTVDKSSSTAFMHLNSLTSEDSAVYYCARTSGSSWFPYWGQGTLVTVSA VL: DIVLTQSPATLSVTPGDSVSLSCRASQSISNNLHWYQQKSHESPRLLIKYTYQSISGIPSRFSGSGSGTDFTLTINSVETEDFGMYFCQQSNRWPLTFGAGTKLELKR | 0.16 | 13.1 | 0.14 | 0.08 | 0.045 | 0.0012 | –
2 | humanized 5E10 antibody (antibody, V domains shown, also called h5E10) VH: QVQLVQSGAEVKKPGASVKVSCKASGYTFTSYYIHWVRQAPGQRLEWMGWIFPGSDITKYNEKFKGRVTITRDTSASTAYMELSSLRSEDTAVYYCAREDYGISTYSAMDFWGQGTLVTVSS VL: DIQLTQSPSFLSASVGDRVTITCKASQDVGTAVAWYQQKPGKAPKLLIYWASTRHTGVPSRFSGSGSGTEFTLTISSLQPEDFATYYCQQYSSYPLTFGQGTKVEIKR | – | – | – | – | – | – | binds
